The record followed here is US20140378663A1.

The target in this experiment is T1, CD20 antigen on Raji lymphoblastoid B cells (UniProt P11836).
T1 sequence (looked up): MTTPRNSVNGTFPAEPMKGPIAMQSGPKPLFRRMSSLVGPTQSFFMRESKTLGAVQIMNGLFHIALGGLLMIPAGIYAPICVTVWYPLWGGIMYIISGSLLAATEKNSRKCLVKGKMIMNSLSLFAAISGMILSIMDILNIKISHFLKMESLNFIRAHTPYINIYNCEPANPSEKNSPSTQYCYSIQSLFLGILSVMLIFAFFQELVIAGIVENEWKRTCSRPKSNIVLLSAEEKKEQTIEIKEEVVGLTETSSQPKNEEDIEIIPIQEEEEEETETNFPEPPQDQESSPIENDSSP
Nature of the experiment: flow cytometry on Raji cells. On the technique in general: A flow cytometer gives signals particle by particle.

B1: R603 chimeric anti-CD20 antibody (LFB-R603), IgG1 with wild-type Fc (antibody, INN chains, looked up, V domains shown, part only)
VH: QAYLQQSGAELVRPGASVKMSCKASGYTFTSYNMHWVKQTPRQGLEWIGGIYPGNGDTSYNQKFKGKATLTVGKSSSTAYMQLSSLTSEDSAVYFCARYDYNYAMDYWGQGTSVTVSS
VL: QIVLSQSPAILSASPGEKVTMTCRASSSVSYMHWYQQKPGSSPKPWIYATSNLASGVPARFSGSGSGTSYSFTISRVEAEDAATYYCQQWTFNPPTFGGGTRLEIK
modifications: IgG1
The molecule B1 yielded an Ag binding MFI (Arbitrary Unit) of 123.
